B1: GFP-RhoBTB1 [human] / myc-ROCK1^1–727 [human] (parent complex)
chain 1: MDADMDYERPNVETIKCVVVGDNAVGKTRLICARACNTTLTQYQLLATHVPTVWAIDQYRVCQEVLERSRDVVDEVSVSLRLWDTFGDHHKDRRFAYGRSDVVVLCFSIANPNSLNHVKSMWYPEIKHFCPRTPVILVGCQLDLRYADLEAVNRARRPLARPIKRGDILPPEKGREVAKELGLPYYETSVFDQFGIKDVFDNAIRAALISRRHLQFWKSHLKKVQKPLLQAPFLPPKAPPPVIKIPECPSMGTNEAACLLDNPLCADVLFILQDQEHIFAHRIYLATSSSKFYDLFLMECEESPNGSEGACEKEKQSRDFQGRILSVDPEEEREEGPPRIPQADQWKSSNKSLVEALGLEAEGAVPETQTLTGWSKGFIGMHREMQVNPISKRMGPMTVVRMDASVQPGPFRTLLQFLYTGQLDEKEKDLVGLAQIAEVLEMFDLRMMVENIMNKEAFMNQEITKAFHVRKANRIKECLSKGTFSDVTFKLDDGAISAHKPLLICSCEWMAAMFGGSFVESANSEVYLPNINKISMQAVLDYLYTKQLSPNLDLDPLELIALANRFCLPHLVALAEQHAVQELTKAATSGVGIDGEVLSYLELAQFHNAHQLAAWCLHHICTNYNSVCSKFRKEIKSKSADNQEYFERHRWPPVWYLKEEDHYQRVKREREKEDIALNKHRSRRKWCFWNSSPAVA
chain 2: MSTGDSFETRFEKMDNLLRDPKSEVNSDCLLDGLDALVYDLDFPALRKNKNIDNFLSRYKDTINKIRDLRMKAEDYEVVKVIGRGAFGEVQLVRHKSTRKVYAMKLLSKFEMIKRSDSAFFWEERDIMAFANSPWVVQLFYAFQDDRYLYMVMEYMPGGDLVNLMSNYDVPEKWARFYTAEVVLALDAIHSMGFIHRDVKPDNMLLDKSGHLKLADFGTCMKMNKEGMVRCDTAVGTPDYISPEVLKSQGGDGYYGRECDWWSVGVFLYEMLVGDTPFYADSLVGTYSKIMNHKNSLTFPDDNDISKEAKNLICAFLTDREVRLGRNGVEEIKRHLFFKNDQWAWETLRDTVAPVVPDLSSDIDTSNFDDLEEDKGEEETFPIPKAFVGNQLPFVGFTYYSNRRYLSSANPNDNRTSSNADKSLQESLQKTIYKLEEQLHNEMQLKDEMEQKCRTSNIKLDKIMKELDEEGNQRRNLESTVSQIEKEKMLLQHRINEYQRKAEQENEKRRNVENEVSTLKDQLEDLKKVSQNSQLANEKLSQLQKQLEEANDLLRTESDTAVRLRKSHTEMSKSISQLESLNRELQERNRILENSKSQTDKDYYQLQAILEAERRDRGHDSEMIGDLQARITSLQEEVKHLKHNLEKVEGERKEAQDMLNHSEKEKNNLEIDLNYKLKSLQQRLEQEVNEHKVTKARLTDKHQSIEEAKSVAMCEMEKKLKEEREAR

The first assay covers variants of B1. Put plainly: co-immunoprecipitation (GFP-trap) with band density quantification; COS7 cells, 24 h after transfection; three independent experiments; parent: 1.1; read off a plot.
For the variant chain 1 R60A, chain 1 C62A, chain 1 E64A, the response was ~1.1 relative value myc IP/GFP IP.

Regarding chain 1 E64A, chain 1 K197A, chain 1 D198A, the response is ~1.2 relative value myc IP/GFP IP.

In the case of chain 1 E64A, chain 1 K197A, the response is ~2 relative value myc IP/GFP IP.

As to chain 1 E64A, the response was ~1.5 relative value myc IP/GFP IP.

The variants in the next assay derive from B1. Kind of assay: co-immunoprecipitation (GFP-trap) with band density quantification; COS7 cells, 24 h after transfection; five independent experiments; parent: 0.52; read off a plot.
For the variant chain 1 K197A, the response is ~0.48 relative value myc IP/GFP IP.

Take chain 1 D198A: the response is ~0.63 relative value myc IP/GFP IP.

Regarding chain 1 E64A, chain 1 K197A, the response is ~1.4 relative value myc IP/GFP IP.

(Values after PMC6744581 (2019).)
